The values that follow come from publication PMC4661386 (2015).

As usually defined, the koff is the first-order rate constant of dissociation. The term Kd denotes the free concentration of one partner at which half of the binding sites on the other are occupied at equilibrium, for simple one-to-one binding.

For assay [1], the target named is T1, CUB_C (CUB module and C-terminal peptide from human TSG-6), wild type (human, UniProt P98066 128-277).
T1 chain: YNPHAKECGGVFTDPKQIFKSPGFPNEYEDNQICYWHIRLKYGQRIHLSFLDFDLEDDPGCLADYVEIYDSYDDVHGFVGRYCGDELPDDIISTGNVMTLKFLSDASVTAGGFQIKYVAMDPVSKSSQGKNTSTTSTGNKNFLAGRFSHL
The experiment in a line: SPR.

The target of assay [2] is T2, Full-length human TSG-6 (rhTSG-6), wild type (human, UniProt P98066 18-277). The experiment in a line: SPR; + 10 mM EDTA. (In general: SPR reads the build-up and loss of mass on a sensor chip optically.)
The target of assay [3] is T2, Full-length human TSG-6 (rhTSG-6), wild …. The experiment in a line: SPR; + 10 mM EDTA. The source holds these as a separate data set.

B1: Recombinant human heavy chain 1 (rHC1) of inter-alpha-inhibitor, wild type (natural protein)
chain: SKSSEKRQAVDTAVDGVFIRSLKVNCKVTSRFAHYVVTSQVVNTANEAREVAFDLEIPKTAFISDFAVTADGNAFIGDIKDKVTAWKQYRKAAISGENAGLVRASGRTMEQFTIHLTVNPQSKVTFQLTYEEVLKRNHMQYEIVIKVKPKQLVHHFEIDVDIFEPQGISKLDAQASFLPKELAAQTIKKSFSGKKGHVLFRPTVSQQQSCPTCSTSLLNGHFKVTYDVSRDKICDLLVANNHFAHFFAPQNLTNMNKNVVFVIDISGSMRGQKVKQTKEALLKILGDMQPGDYFDLVLFGTRVQSWKGSLVQASEANLQAAQDFVRGFSLDEATNLNGGLLRGIEILNQVQESLPELSNHASILIMLTDGDPTEGVTDRSQILKNVRNAIRGRFPLYNLGFGHNVDFNFLEVMSMENNGRAQRIYEDHDATQQLQGFYSQVAKPLLVDVDLQYPQDAVLALTQNHHKQYYEGSEIVVAGRIADNKQSSFKADVQAHGEGQEFSITCLVDEEEMKKLLRERGHMLENHVERLWAYLTIQELLAKRMKVDREERANLSSQALQMSLDYGFVTPLTSMSIRGMADQDGLKPTIDKPSEDSPPLEMLGPRRTFVLSALQPSPTHSSSNTQRLPDRVTGVDTD
Take B1: the koff in assay [1] was 0.0004 s⁻¹; in assay [3] it was 0.0051 s⁻¹. In addition, the Kd in assay [2] is 5.1 nM.
